Patent US20260184774A1 (GENOME, published 2026)

Key:
Assay in all cases: ELISA, coated CNTN4 domain sample, anti-human IgG Fc-HRP
[1] = molecular target: T1, Human CNTN4 domain sample D1-6 (human, UniProt Q8IWV2 19-586, limits assumed)
T1 construct: domain: Domain 1 to Domain 6
T1 sequence (looked up): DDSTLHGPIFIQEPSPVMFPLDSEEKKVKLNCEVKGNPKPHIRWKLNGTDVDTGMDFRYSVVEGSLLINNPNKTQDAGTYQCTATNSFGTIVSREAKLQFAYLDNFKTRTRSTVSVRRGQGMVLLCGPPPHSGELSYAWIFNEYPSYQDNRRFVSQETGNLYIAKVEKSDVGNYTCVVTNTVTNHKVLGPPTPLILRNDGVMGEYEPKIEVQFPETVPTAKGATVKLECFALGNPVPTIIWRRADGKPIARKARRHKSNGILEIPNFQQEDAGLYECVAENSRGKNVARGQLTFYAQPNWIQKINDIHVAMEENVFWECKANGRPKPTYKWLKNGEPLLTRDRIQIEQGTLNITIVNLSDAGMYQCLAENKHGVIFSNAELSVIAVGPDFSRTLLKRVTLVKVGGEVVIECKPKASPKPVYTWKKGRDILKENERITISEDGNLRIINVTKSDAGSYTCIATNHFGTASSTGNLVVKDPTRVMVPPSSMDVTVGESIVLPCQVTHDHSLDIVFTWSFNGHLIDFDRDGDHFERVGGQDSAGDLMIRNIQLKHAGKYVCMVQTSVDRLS
Experimental: (§1) 50 μL of the diluted secondary antibody (Anti-human IgG Fc-HRP) was distributed to each well. The wells were sealed with sealing tape and incubated at 37° C. for 1 hour. The wells were washed tree times after Sealing tape was removed.
(§2) 50 μL of ABTs were distributed in each well. The wells were incubated at room temperature for 30 minutes. The absorbance was detected at 405 nm by using Microplate reader.

[2] = molecular target: T2, Human CNTN4 domain sample D1-4 (human, UniProt Q8IWV2 19-400, limits assumed)
T2 construct: domain: Domain 1 to Domain 4
T2 sequence (looked up): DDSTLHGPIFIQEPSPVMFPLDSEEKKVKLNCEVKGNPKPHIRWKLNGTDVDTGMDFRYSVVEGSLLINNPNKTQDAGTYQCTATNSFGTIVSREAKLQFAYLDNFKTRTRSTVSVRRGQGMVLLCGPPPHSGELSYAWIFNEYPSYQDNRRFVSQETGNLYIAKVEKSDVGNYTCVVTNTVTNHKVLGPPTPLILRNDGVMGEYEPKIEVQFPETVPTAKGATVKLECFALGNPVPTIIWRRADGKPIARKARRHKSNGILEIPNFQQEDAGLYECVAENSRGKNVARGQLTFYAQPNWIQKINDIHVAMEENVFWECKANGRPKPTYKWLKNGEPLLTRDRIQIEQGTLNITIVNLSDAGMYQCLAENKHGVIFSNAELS
Experimental: as §1, §2

[3] = molecular target: T3, Human CNTN4 domain sample D1-5 (human, UniProt Q8IWV2 19-493, limits assumed)
T3 construct: domain: Domain 1 to Domain 5
T3 sequence (looked up): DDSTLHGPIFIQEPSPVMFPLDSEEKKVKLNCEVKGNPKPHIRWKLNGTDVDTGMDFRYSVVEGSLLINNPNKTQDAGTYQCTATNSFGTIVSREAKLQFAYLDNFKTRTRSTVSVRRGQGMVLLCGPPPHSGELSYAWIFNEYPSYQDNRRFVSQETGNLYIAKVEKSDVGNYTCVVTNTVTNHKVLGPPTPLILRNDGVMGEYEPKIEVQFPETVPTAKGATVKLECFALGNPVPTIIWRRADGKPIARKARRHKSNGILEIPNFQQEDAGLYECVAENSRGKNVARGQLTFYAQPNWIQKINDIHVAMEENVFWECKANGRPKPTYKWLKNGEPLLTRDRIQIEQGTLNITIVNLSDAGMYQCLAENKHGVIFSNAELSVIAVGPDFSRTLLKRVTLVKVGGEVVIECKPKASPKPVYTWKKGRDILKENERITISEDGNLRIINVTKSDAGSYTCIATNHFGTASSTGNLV
Experimental: as §1, §2

[4] = molecular target: T4, Human CNTN4 domain sample D1-7 (human, UniProt Q8IWV2 19-697, limits assumed)
T4 construct: domain: Domain 1 to Domain 7
T4 sequence (looked up): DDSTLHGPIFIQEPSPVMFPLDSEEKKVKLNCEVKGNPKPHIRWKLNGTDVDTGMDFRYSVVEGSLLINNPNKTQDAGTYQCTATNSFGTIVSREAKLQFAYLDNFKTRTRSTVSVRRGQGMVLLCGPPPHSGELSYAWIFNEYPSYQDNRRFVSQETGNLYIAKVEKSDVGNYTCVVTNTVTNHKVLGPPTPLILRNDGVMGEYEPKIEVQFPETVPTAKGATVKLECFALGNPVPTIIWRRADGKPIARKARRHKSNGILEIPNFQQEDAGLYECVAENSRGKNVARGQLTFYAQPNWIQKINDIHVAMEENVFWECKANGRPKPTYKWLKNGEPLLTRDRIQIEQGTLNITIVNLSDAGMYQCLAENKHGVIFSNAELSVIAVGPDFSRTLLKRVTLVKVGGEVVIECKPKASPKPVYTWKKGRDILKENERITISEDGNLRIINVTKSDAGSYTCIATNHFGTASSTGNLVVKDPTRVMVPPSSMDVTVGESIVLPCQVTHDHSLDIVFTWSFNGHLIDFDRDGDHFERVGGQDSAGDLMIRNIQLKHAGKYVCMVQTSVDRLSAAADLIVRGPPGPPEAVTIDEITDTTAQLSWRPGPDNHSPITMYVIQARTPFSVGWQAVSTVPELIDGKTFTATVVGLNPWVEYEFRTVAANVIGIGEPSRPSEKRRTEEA
Experimental: as §1, §2

[5] = molecular target: T5, Human CNTN4 domain sample Full (Domain 1 to Domain 10) (human, UniProt Q8IWV2 19-1000, limits assumed)
T5 construct: domain: Domain 1 to Domain 10 (Ig1 to Ig6 and FN1 to FN4)
T5 sequence (looked up): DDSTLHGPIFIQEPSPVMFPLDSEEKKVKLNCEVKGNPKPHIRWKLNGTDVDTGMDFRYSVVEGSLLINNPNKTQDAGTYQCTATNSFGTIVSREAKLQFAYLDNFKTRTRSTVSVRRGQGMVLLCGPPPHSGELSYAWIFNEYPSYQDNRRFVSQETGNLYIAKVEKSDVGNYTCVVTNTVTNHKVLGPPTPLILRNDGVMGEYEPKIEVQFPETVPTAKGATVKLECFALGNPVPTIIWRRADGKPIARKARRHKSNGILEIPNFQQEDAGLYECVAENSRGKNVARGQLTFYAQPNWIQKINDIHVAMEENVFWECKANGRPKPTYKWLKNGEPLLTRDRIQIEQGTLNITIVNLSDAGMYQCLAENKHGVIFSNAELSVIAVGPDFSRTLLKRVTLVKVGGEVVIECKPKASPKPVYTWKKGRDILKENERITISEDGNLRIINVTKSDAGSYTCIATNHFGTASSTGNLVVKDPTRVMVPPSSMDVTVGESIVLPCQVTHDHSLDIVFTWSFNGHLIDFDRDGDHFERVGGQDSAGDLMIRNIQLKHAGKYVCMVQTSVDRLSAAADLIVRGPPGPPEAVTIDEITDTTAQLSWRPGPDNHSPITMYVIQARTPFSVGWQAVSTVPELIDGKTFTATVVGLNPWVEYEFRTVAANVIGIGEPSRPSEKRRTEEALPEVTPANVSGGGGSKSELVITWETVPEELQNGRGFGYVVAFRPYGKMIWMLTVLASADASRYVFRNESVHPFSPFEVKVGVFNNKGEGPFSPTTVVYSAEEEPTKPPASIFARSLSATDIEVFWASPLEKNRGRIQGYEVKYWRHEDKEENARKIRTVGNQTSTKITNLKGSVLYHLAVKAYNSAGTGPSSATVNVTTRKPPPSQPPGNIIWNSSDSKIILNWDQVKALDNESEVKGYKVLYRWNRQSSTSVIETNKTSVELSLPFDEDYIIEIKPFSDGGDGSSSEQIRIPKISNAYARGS
Experimental: as §1, §2

[6] = molecular target: T6, Human CNTN4 domain sample D1-8 (human, UniProt Q8IWV2 19-799, limits assumed)
T6 construct: domain: Domain 1 to Domain 8
T6 sequence (looked up): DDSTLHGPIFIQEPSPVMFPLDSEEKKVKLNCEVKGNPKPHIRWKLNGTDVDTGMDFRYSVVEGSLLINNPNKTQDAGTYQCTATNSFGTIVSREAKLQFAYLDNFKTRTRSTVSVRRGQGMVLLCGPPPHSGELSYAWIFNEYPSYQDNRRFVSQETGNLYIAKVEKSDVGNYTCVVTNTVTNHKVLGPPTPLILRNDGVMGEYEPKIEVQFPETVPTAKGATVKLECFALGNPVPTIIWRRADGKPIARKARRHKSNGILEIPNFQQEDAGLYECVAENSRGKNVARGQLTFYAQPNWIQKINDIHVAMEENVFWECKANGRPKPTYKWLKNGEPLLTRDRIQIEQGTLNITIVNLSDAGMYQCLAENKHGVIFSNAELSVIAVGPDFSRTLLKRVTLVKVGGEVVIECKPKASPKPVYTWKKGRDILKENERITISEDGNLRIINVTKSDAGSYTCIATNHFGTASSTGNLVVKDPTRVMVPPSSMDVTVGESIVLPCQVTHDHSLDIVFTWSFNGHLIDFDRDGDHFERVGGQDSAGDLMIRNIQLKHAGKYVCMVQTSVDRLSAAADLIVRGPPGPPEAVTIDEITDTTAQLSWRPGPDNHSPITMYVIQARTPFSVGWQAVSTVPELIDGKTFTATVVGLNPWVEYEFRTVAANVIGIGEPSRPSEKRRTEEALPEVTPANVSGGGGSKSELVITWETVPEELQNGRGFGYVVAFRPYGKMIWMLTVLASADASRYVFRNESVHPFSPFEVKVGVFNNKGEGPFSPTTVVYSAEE
Experimental: as §1, §2

[7] = molecular target: T7, Human CNTN4 domain sample D1-9 (human, UniProt Q8IWV2 19-899, limits assumed)
T7 construct: domain: Domain 1 to Domain 9
T7 sequence (looked up): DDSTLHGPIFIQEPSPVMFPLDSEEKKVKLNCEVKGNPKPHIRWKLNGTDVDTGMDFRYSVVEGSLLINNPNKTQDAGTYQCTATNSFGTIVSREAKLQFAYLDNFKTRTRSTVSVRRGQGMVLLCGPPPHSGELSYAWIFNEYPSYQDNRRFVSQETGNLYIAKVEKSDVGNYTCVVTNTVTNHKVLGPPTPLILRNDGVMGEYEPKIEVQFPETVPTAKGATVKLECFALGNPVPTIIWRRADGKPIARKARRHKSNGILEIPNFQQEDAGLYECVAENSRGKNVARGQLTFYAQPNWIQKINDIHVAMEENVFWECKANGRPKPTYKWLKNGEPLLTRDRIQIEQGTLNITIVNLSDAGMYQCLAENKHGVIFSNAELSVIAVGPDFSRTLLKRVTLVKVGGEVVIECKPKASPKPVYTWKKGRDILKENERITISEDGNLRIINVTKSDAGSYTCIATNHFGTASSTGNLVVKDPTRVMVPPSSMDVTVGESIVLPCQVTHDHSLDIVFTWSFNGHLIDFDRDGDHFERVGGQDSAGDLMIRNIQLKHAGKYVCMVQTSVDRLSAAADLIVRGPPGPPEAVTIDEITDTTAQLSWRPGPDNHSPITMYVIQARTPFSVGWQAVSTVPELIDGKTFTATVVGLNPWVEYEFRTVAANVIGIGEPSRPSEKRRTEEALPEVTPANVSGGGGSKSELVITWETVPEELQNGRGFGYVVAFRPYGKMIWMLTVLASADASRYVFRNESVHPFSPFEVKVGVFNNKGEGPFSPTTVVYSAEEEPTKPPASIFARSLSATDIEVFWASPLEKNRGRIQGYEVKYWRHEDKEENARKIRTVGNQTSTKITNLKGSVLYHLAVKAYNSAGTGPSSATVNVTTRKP
Experimental: as §1, §2

B1: Anti-CNTN4 chicken-human chimeric IgG4 antibody AB1 (antibody, V domains shown)
VH: AVTLDESEGGLQTPGGALSLVCKASGFTFSSFNMFWVRQAPGKGLEYVAEISGGGGSTWYAPAVKGRATISRDNGQSTVRLQLNNLRAEDTGTYYCAKSADTWSYGAATIDAWGHGTEVIVSS
VL: ALTQPSSVSANLGETVKITCSGSSGSYGWYQQKSPGSAPVTLIYDNTNRPSDIPSRFSGSGSGSTGTLTITGVRAEDEAVYYCGGYDGSTDVFGAGTTLTVL
notes: Chicken variable domains of scFv AB1 on human IgG4 constant regions; It was purified on Kappa select resin, so the light chain is kappa; also called anti-CNTN4 antibody AB1; Anti-CNTN4 129 chimeric IgG4 antibody
binding result [1]: no binding | binding result [2]: no binding | binding result [3]: no binding | binding result [4]: no binding | binding result [5]: binds | binding result [6]: binds | binding result [7]: binds
